Substitutions are numbered along the chain they refer to. Several values for one entry are separate records, joined by “and”; a condition that tells them apart may be missing. Identical values can stand only once.
B1: P1AE5709 (antibody, V domains shown)
VH: EVQLLESGGGLVQPGGSLRLSCAASGFTFSKYAMAWVRQAPGKGLEWVASISTGGVNTYYRDSVKARFTISRDNSKNTLYLQMNSLRAEDTAVYYCATHTGDYFDYWGQGTMVTVSS
VL: EIVLTQSPGTLSLSPGERATLSCRASQSVSISGINLMNWYQQKPGQQPRLLIYHASILASGIPDRFSGSGSGTDFTLTISRLEPEDFAVYYCQQTRESPLTFGQGTRLEIK
notes: Humanized 5E11 IgG; PGLALA Fc implied by the CAR-J assay; also called 5E11_VH1a + 5E11_VL2a
B2: P1AE5707 (antibody, V domains shown)
VH: B1 VH
VL: DIVMTQSPDSLAVSLGERATINCRASQSVSISGINLMNWYQQKPGQQPKLLIYHASILASGVPDRFSGSGSGTDFTLTISSLQAEDVAVYYCQQTRESPLTFGQGTRLEIK
notes: Humanized 5E11 IgG; PGLALA Fc implied by the CAR-J assay; also called 5E11_VH1a + 5E11_VL1a
B3: P1AE5714 (antibody, V domains shown)
VH: B1 VH with V2L, S75A
VL: B2 VL
notes: Humanized 5E11 IgG; PGLALA Fc implied by the CAR-J assay; also called 5E11_VH1b + 5E11_VL1a
B4: P1AE5717 (antibody, V domains shown)
VH: B1 VH with V2L, S75A
VL: B1 VL with R49K
notes: Humanized 5E11 IgG; PGLALA Fc implied by the CAR-J assay; also called 5E11_VH1b + 5E11_VL2b
B5: P1AE5715 (antibody, V domains shown)
VH: B1 VH with V2L, S75A
VL: B2 VL with R24K, A25S
notes: Humanized 5E11 IgG; PGLALA Fc implied by the CAR-J assay; also called 5E11_VH1b + 5E11_VL1c
B6: P1AE5713 (antibody, V domains shown)
VH: B1 VH
VL: DIQMTQSPSSLSASVGDRVTITCRASQSVSISGINLMNWYQQKPGQQPKLLIYHASILASGVPSRFSGSGSGTDFTLTISSLQPEDFATYYCQQTRESPLTFGQGTRLEIK
notes: Humanized 5E11 IgG; PGLALA Fc implied by the CAR-J assay; also called 5E11_VH1a + 5E11_VL3b
B7: P1AE5729 (antibody, V domains shown)
VH: B1 VH with V2L, R61A, A66G, S75A
VL: B1 VL with R49K
notes: Humanized 5E11 IgG; PGLALA Fc implied by the CAR-J assay; also called 5E11_VH1d + 5E11_VL2b
B8: P1AE5716 (antibody, V domains shown)
VH: B1 VH with V2L, S75A
VL: B1 VL
notes: Humanized 5E11 IgG; PGLALA Fc implied by the CAR-J assay; also called 5E11_VH1b + 5E11_VL2a
B9: P1AE5708 (antibody, V domains shown)
VH: B1 VH
VL: B2 VL with R24K, A25S
notes: Humanized 5E11 IgG; PGLALA Fc implied by the CAR-J assay; also called 5E11_VH1a + 5E11_VL1c
B10: P1AE5722 (antibody, V domains shown)
VH: B1 VH with R61A, A66G
VL: B1 VL
notes: Humanized 5E11 IgG; PGLALA Fc implied by the CAR-J assay; also called 5E11_VH1c + 5E11_VL2a
B11: P1AE5710 (antibody, V domains shown)
VH: B1 VH
VL: B1 VL with R49K
notes: Humanized 5E11 IgG; PGLALA Fc implied by the CAR-J assay; also called 5E11_VH1a + 5E11_VL2b
B12: P1AE5737 (antibody, V domains shown)
VH: QVQLVESGGGVVQPGRSLRLSCAASGFSFSNYGMAWVRQAPGKGLEWVASISTGGGNTYYRDSVKGRFTISRDNSKNTLYLQMNSLRAEDTAVYYCTRHDRGGLYWGQGTMVTVSS
VL: DIVMTQSPDSLAVSLGERATINCKSSKSLLHSNGITYVYWYQQKPGQPPKLLIYRMSNLASGVPDRFSGSGSGTDFTLTISSLQAEDVAVYHCGQLLENPYTFGQGTKLEIK
notes: Humanized 5F11 IgG; PGLALA Fc implied by the CAR-J assay; also called 5F11_VH1a + 5F11_VL2b
B13: P1AE5743 (antibody, V domains shown)
VH: B12 VH with Q1E, S75A
VL: EIVLTQSPGTLSLSPGERATLSCRASKSLLHSNGITYVYWYQQKPGQAPRLLIYRMSNLASGIPDRFSGSGSGTDFTLTISRLEPEDFAVYHCGQLLENPYTFGQGTKLEIK
notes: Humanized 5F11 IgG; PGLALA Fc implied by the CAR-J assay; also called 5F11_VH1b + 5F11_VL2c
B14: P1AE5758 (antibody, V domains shown)
VH: B12 VH with Q1E, V11L, R16G, S75A
VL: B12 VL
notes: Humanized 5F11 IgG; PGLALA Fc implied by the CAR-J assay; also called 5F11_VH2b + 5F11_VL2b
B15: P1AE5747 (antibody, V domains shown)
VH: B12 VH with R61A
VL: B12 VL
notes: Humanized 5F11 IgG; PGLALA Fc implied by the CAR-J assay; also called 5F11_VH1c + 5F11_VL2b
B16: P1AE5764 (antibody, V domains shown)
VH: B12 VH with Q1E, V11L, R16G, R61A, S75A
VL: B13 VL
notes: Humanized 5F11 IgG; PGLALA Fc implied by the CAR-J assay; also called 5F11_VH2d + 5F11_VL2c
B17: P1AE5738 (antibody, V domains shown)
VH: B12 VH
VL: B13 VL
notes: Humanized 5F11 IgG; PGLALA Fc implied by the CAR-J assay; also called 5F11_VH1a + 5F11_VL2c
B18: P1AE5754 (antibody, V domains shown)
VH: B12 VH with Q1E, R61A, S75A
VL: B13 VL
notes: Humanized 5F11 IgG; PGLALA Fc implied by the CAR-J assay; also called 5F11_VH1d + 5F11_VL2c
B19: P1AE5759 (antibody, V domains shown)
VH: B12 VH with Q1E, V11L, R16G, S75A
VL: B13 VL
notes: Humanized 5F11 IgG; PGLALA Fc implied by the CAR-J assay; also called 5F11_VH2b + 5F11_VL2c
B20: P1AE5753 (antibody, V domains shown)
VH: B12 VH with Q1E, R61A, S75A
VL: B12 VL
notes: Humanized 5F11 IgG; PGLALA Fc implied by the CAR-J assay; also called 5F11_VH1d + 5F11_VL2b
B21: P1AE5749 (antibody, V domains shown)
VH: B12 VH with R61A
VL: B13 VL
notes: Humanized 5F11 IgG; PGLALA Fc implied by the CAR-J assay; also called 5F11_VH1c + 5F11_VL2c
B22: 10B10-TCB (bispecific antibody, human IgG1, kappa, L234A L235A)
light 1: DIQLTQSPHSLSASLGETVSIECLASEGISNYLAWFHQKPGKSPQLLIYYASSLQDGVPSRFSGSGSGTQYSLKISNMQPEDEGVYYCQQGYKYPLTFGSGTKLEIKRTVAAPSVFIFPPSDRKLKSGTASVVCLLNNFYPREAKVQWKVDNALQSGNSQESVTEQDSKDSTYSLSSTLTLSKADYEKHKVYACEVTHQGLSSPVTKSFNRGEC
light 2: EVQLLESGGGLVQPGGSLRLSCAASGFTFSTYAMNWVRQAPGKGLEWVSRIRSKYNNYATYYADSVKGRFTISRDDSKNTLYLQMNSLRAEDTAVYYCVRHGNFGNSYVSWFAYWGQGTLVTVSSASVAAPSVFIFPPSDEQLKSGTASVVCLLNNFYPREAKVQWKVDNALQSGNSQESVTEQDSKDSTYSLSSTLTLSKADYEKHKVYACEVTHQGLSSPVTKSFNRGEC
heavy 1: EVQLVESGGGLVQPGRSMKLSCAASGFTFTNFYMAWVRQAPTKALEWVASINTGGGYTYYRDSVKGRFTVSRDNTRSTLYLQMDSLRSEETATYYCARHLTYYGRYYYFDYWGQGVMVTVSSASTKGPSVFPLAPSSKSTSGGTAALGCLVEDYFPEPVTVSWNSGALTSGVHTFPAVLQSSGLYSLSSVVTVPSSSLGTQTYICNVNHKPSNTKVDEKVEPKSCDKTHTCPPCPAPEAAGGPSVFLFPPKPKDTLMISRTPEVTCVVVDVSHEDPEVKFNWYVDGVEVHNAKTKPREEQYNSTYRVVSVLTVLHQDWLNGKEYKCKVSNKALGAPIEKTISKAKGQPREPQVCTLPPSRDELTKNQVSLSCAVKGFYPSDIAVEWESNGQPENNYKTTPPVLDSDGSFFLVSKLTVDKSRWQQGNVFSCSVMHEALHNHYTQKSLSLSPGK
heavy 2: not shown

molecular target: T1, human GPRC5D (human, UniProt Q9NZD1 1-345); test: cell ELISA, CHO hu GPRC5D (EC/IC50 rel)
T1 construct: also called G protein-coupled receptor class C group 5 member D; hu GPCR5D
Description: Stable transfected CHO clones expressing either human GPRCSD or cynomolgus GPRCSD or murine GPRCSD or human GPRCSA were used to analyze the binding of potential lead candidate antibodies as IgGs. In detail, 10⁴ cells (viability≥98%) were seeded into 384 well-microtiter plates (BD Poly D-Lysin, #356662, volume: 25 μl/well) using fresh culture medium. After overnight incubation at 37° C., 25 μl/well dilutions of antibodies were added (15×1:3 dilutions in 1×PBS, assay conc. starts at 30 μg/ml) to the cells for 2 hours at 4° C. After one washing step using 90 μl/well PBST (10×PBS, Roche, #11666789001+0.1% Tween 20), cells were subsequently fixed by the addition of 50 μl/well 0.05% glutaraldehyde (Sigma Cat. No: G5882 in 1×PBS) for 10 min at room temperature (RT). After three additional washing steps using 90 μl/well PBST, secondary antibodies were added for detection: for human antibodies goat anti-human Ig a chain antibody HRP conjugate (Millipore #AP502P) diluted 1:2000 in blocking buffer (1×PBS (Roche #11666789001)+2% BSA (Bovine Serum Albumin Fraction V, fatty acid free, Roche, #10735086001)+0.05% Tween 20) was used (25 μl/well). […] After incubation for 1 h at RT and three additional washing steps using 90 μl/well PBST, 25 μl/well TMB substrate was added (Roche order no. 11835033001) for 10 min and color development to final ODs was determined by measurement at 370 nm/492 nm.
For the characterization of the humanization variants of the VH and VL domains of the GPRC5D binders the ELISA protocol as described above was used (see Example 7). The data are summarized in the table 10 for the humanization variants of 5E11 and in table 11 for the humanization variants of 5F11.

T1 sequence (Q9NZD1 whole entry): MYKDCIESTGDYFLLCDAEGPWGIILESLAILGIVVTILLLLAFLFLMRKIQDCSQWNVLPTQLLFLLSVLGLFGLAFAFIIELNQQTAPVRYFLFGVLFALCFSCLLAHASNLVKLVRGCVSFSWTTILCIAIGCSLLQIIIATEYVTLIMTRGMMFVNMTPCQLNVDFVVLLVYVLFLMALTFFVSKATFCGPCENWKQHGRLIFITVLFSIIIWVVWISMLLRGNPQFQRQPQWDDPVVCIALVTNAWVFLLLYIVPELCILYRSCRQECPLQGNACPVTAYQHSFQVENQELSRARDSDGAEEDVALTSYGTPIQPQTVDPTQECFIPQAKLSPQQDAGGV

EC50	Binder
0.0191 µg/mL and 0.13 nM	B1
0.0142 µg/mL and 0.09 nM	B2
0.0129 µg/mL and 0.09 nM	B3
0.0139 µg/mL and 0.09 nM	B4
0.0211 µg/mL and 0.14 nM	B5
0.0165 µg/mL and 0.11 nM	B6
0.0104 µg/mL and 0.07 nM	B7
0.0151 µg/mL and 0.1 nM	B8
0.012 µg/mL and 0.08 nM	B9
0.0197 µg/mL and 0.13 nM	B10
0.0101 µg/mL and 0.07 nM	B11
0.0059 µg/mL and 0.04 nM	B12
0.0076 µg/mL and 0.05 nM	B13
0.0026 µg/mL and 0.02 nM	B14
0.009 µg/mL and 0.06 nM	B15
0.0045 µg/mL and 0.03 nM	B16
0.0041 µg/mL and 0.03 nM	B17
0.009 µg/mL and 0.06 nM	B18
0.0031 µg/mL and 0.02 nM	B19
0.0104 µg/mL and 0.07 nM	B20
0.0074 µg/mL and 0.05 nM	B21

molecular target: T1, human GPRC5D; test: cell-based or functional assay

CAR-J2 EC50 [ng/mL] (PGLALA-CAR-J activation, L363 target cells)	Binder
2.95 ng/mL	B12
583 ng/mL	B13
190 ng/mL	B14
183 ng/mL	B15
78.2 ng/mL	B16
397 ng/mL	B17
8.89 ng/mL	B18
15.7 ng/mL	B19
30 ng/mL	B20
82.6 ng/mL	B21

molecular target: T1, human GPRC5D; test: cell-based or functional assay; remark: another data set of the same source

CAR-J2 EC50 [ng/mL] (PGLALA-CAR-J activation, L363 target cells)	Binder
59.4 ng/mL	B1
42.4 ng/mL	B2
5.5 ng/mL	B3
79.9 ng/mL	B4
3.6 ng/mL	B5
76.9 ng/mL	B6
61.3 ng/mL	B7
3.3 ng/mL	B8
456 ng/mL	B9
4.6 ng/mL	B10
3.5 ng/mL	B11

molecular target: T1, human GPRC5D; test: cell-based or functional assay; remark: another data set of the same source

Binder	EC50 in vitro killing assay, AMO-1	EC50 in vitro killing assay, EJM	EC50 in vitro killing assay, L363	EC50 in vitro killing assay, MOLP-2	EC50 in vitro killing assay, NCI-H929	EC50 in vitro killing assay, OPM-2	EC50 in vitro killing assay, RPMI
B22	0.084 nM	0.079 nM	0.034 nM	0.16 nM	0.056 nM	0.028 nM	0.965 nM

From patent publication US20220259318A1 (Hoffmann-La Roche, published 2022)
